{
  "source": "paper PMC9253567",
  "binders": {"B1": {"name": "FLAG-tagged ZAPS WT (zinc finger antiviral protein, short isoform), Q7Z2W4-2 1-699 (natural protein)", "chain": "MADPEVCCFITKILCAHGGRMALDALLQEIALSEPQLCEVLQVAGPDRFVVLETGGEAGITRSVVATTRARVCRRKYCQRPCDNLHLCKLNLLGRCNYSQSERNLCKYSHEVLSEENFKVLKNHELSGLNKEELAVLLLQSDPFFMPEICKSYKGEGRQQICNQQPPCSRLHICDHFTRGNCRFPNCLRSHNLMDRKVLAIMREHGLNPDVVQNIQDICNSKHMQKNPPGPRAPSSHRRNMAYRARSKSRDRFFQGSQEFLASASASAERSCTPSPDQISHRASLEDAPVDDLTRKFTYLGSQDRARPPSGSSKATDLGGTSQAGTSQRFLENGSQEDLLHGNPGSTYLASNSTSAPNWKSLTSWTNDQGARRKTVFSPTLPAARSSLGSLQTPEAVTTRKGTGLLSSDYRIINGKSGTQDIQPGPLFNNNADGVATDITSTRSLNYKSTSSGHREISSPRIQDAGPASRDVQATGRIADDADPRVALVNDSLSDVTSTTSSRVDDHDSEEICLDHLCKGCPLNGSCSKVHFHLPYRWQMLIGKTWTDFEHMETIEKGYCNPGIHLCSVGSYTINFRVMSCDSFPIRRLSTPSSVTKPANSVFTTKWIWYWKNESGTWIQYGEEKDKRKNSNVDSSYLESLYQSCPRGVVPFQAGSRNYELSFQGMIQTNIASKTQKDVIRRPTFVPQWYVQQMKRGPE"}},
  "molecular_target": "myc-tagged TRIM25 WT (tripartite motif-containing protein 25), Q14258",
  "sequence (Q14258 whole entry)": "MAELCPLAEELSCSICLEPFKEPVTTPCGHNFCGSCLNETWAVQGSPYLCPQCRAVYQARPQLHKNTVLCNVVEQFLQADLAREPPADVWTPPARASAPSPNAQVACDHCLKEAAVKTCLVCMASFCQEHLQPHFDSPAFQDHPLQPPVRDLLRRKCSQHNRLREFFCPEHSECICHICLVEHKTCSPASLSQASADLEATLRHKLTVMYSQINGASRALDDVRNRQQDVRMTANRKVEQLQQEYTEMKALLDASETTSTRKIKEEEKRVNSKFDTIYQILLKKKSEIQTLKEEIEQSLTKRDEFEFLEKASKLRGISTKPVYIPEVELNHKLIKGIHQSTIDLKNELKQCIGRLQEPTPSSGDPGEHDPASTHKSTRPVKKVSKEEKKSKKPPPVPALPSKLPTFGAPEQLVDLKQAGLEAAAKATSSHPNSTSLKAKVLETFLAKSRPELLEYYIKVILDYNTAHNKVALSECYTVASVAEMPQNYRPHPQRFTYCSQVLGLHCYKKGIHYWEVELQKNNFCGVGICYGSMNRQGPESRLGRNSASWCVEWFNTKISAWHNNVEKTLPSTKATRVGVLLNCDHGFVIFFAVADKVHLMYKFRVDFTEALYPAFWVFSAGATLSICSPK",
  "test": "co-IP; myc IP (anti-myc beads) of myc-TRIM25 WT from lysates of ZAP KO 293T cells co-transfected with FLAG-ZAPS or FLAG-ZAPL WT or mutants; FLAG-ZAP detected by immunoblot; FLAG IP buffer (100 mM Tris-HCl 8.0, 150 mM NaCl, 5 mM EDTA, 1 mM DTT, 5% glycerol, 0.1% NP-40), 4°C, 45 min; FLAG IP band divided by myc IP band (ImageJ)",
  "conditions": "remark: other sources report otherwise",
  "note": "“And” between values parts separate entries of the source, which are not always exact repeats. Identical values can stand only once.",
  "data": [
    {"binder": "B1", "values": [
      {"measurement": "ZAP-TRIM25 interaction (co-IP, FLAG-ZAP band over myc-TRIM25 band, ImageJ)", "value": "0.131 and 0.304"}
    ]}
  ]
}
